Experimental data from publication PMC10849960.
Ends that are not written are not given here.

How the values were obtained:
[1] = biological target: RFdiffusion de novo PTH binder (picomolar); assay: affinity purification with mass spectrometry; binder-conjugated beads capture PTH from human plasma supplemented with PTH; recovery by LC-MS/MS of the N-terminal tryptic peptide; triplicates
[2] = biological target: RFdiffusion de novo PTH binder (picomolar); assay: affinity purification with mass spectrometry; binder-conjugated magnetic beads capture the peptide from buffer; recovery by LC-MS/MS (tryptic N-terminal peptide for PTH, intact peptide for GCG); triplicates

**Q.** Which percent recovery [1] does the source give for SVSEIQLMHNLGKHLNSMERVEWLRKKLQDVHNF (also: fluorescently labelled, label and position not given here) [parathyroid hormone (PTH)] here?
**A.** The percent recovery was 43%.

**Q.** What about the percent recovery [2] of the same binder?
**A.** The percent recovery was 53%.
